Assays:
[1] = target: T1, Rabbit skeletal muscle actin, polymerised (F-actin) (rabbit, UniProt P68135 1-377); assay: cell-based or functional assay
[2] = target: T1, Rabbit skeletal muscle actin, …; assay: co-sedimentation; high-speed pelleting: 0.5 uM BtszB-CT with 0, 0.1, 0.25, 0.5, 1, 2, 4 uM F-actin, 30 min at room temperature, 316,000 x g for 20 min at 25°C; supernatant and pellet on Coomassie gels, densitometry; BtszB-CT pelleted without F-actin subtracted; fit to a Hill equation (cooperative binding model); details: both partners purified

B1: C-terminal fragment of Bitesize isoform B (BtszB-CT) (domain or fragment)
chain: VKGQVEFAMQYNYKLSALEVHVVRCKDLAAVDAKRNRSDPYVKVYLLPDKSKAGKRKTKVKKHTLNPIFDETMRFHTPISSLESRTLWLTVWHSDMFGRNDFLGEVSVNLQGRLFDNPQSQWYLLQERSEPFDEVATYRGDIVVGLKYIPPENIKSSFFSRGSSITGSSSNLRKFGGSIKSVASKSERTSKGGQLHVLVKEAKHLSPIKANGTCDAFCKSYLLPDRTRSSKQKTPVVKRTLHPSWNYTFVYEDVSLEELSERALELTVWDHDRLASNEFVGGIRFSLGTGRSYGRQVEWMDATGKELSLWQNMLDRPNFWVEGSLVLRSSLDGIRANLP
TIRF microscopy bundling assay: filament/bundle fluorescence intensity at FWHM, normalised to the mean of the control reaction (2 uM F-actin), with 1 uM BtszB-CT [1]: 3.4 fold of the control reaction (2 uM F-actin) | Kd [2]: 450 nM
